{
  "source": "the supplement of paper PMC10567573",
  "parents": {"B1": {"name": "OAS1 (parent)", "chain": "YIGTHEYPHFSHRPSTLQAASTPQ"}},
  "data": [
    {"variants_of": "B1", "assay": "protein stability index of a GFP-peptide fusion (GPS, HEK-293T) (PSI 1-6); higher = more stable", "conditions": "c terminus: a fixed tail appended", "values": [
      {"variant": "YIGTHEFPHFSHRPSTLQAASTPQ", "protein stability index": 1.68},
      {"variant": "YIGTHEYPHFSHLPSTLQAASTPQ", "protein stability index": 1.66},
      {"variant": "YSGTHEYPHFSHRPSTLQAASTPQ", "protein stability index": 2.49},
      {"variant": "YIGTHEYPHFSHRPSTLQAASTPV", "protein stability index": 2.2},
      {"variant": "YIGTHEYPHFSHRPSTLQAASTMQ", "protein stability index": 1.89},
      {"variant": "YIGTHEQPHFSHRPSTLQAASTPQ", "protein stability index": 2.65},
      {"variant": "YIGTHEYPHFSHRPITLQAASTPQ", "protein stability index": 1.85},
      {"variant": "KIGTHEYPHFSHRPSTLQAASTPQ", "protein stability index": 3.52},
      {"variant": "YIGTHEYPEFSHRPSTLQAASTPQ", "protein stability index": 3.17},
      {"variant": "YIGTHEYPHFSHRPSTLQAASTEQ", "protein stability index": 2.37},
      {"variant": "YIATHEYPHFSHRPSTLQAASTPQ", "protein stability index": 2.11},
      {"variant": "YNGTHEYPHFSHRPSTLQAASTPQ", "protein stability index": 3.29},
      {"variant": "YIGTHEYYHFSHRPSTLQAASTPQ", "protein stability index": 1.92},
      {"variant": "YIGTHEYMHFSHRPSTLQAASTPQ", "protein stability index": 1.91},
      {"variant": "YIGTHEYPHFSHRPSTLQAASFPQ", "protein stability index": 1.93},
      {"variant": "YIGTHERPHFSHRPSTLQAASTPQ", "protein stability index": 2.12},
      {"variant": "YIGVHEYPHFSHRPSTLQAASTPQ", "protein stability index": 1.76},
      {"variant": "YIGTHEYQHFSHRPSTLQAASTPQ", "protein stability index": 1.95},
      {"variant": "YIGTHEYPHASHRPSTLQAASTPQ", "protein stability index": 2.57},
      {"variant": "YIGTHEYPHFSHRPSTLQGASTPQ", "protein stability index": 1.98},
      {"variant": "YIWTHEYPHFSHRPSTLQAASTPQ", "protein stability index": 1.83},
      {"variant": "YIGTHEYPHFSHTPSTLQAASTPQ", "protein stability index": 1.79},
      {"variant": "YIGTLEYPHFSHRPSTLQAASTPQ", "protein stability index": 2.12},
      {"variant": "YIGTHEYPHFSHRPSTLQAASKPQ", "protein stability index": 2.35},
      {"variant": "YIGTHEYPHQSHRPSTLQAASTPQ", "protein stability index": 2.41},
      {"variant": "YIGTHEYPHFSIRPSTLQAASTPQ", "protein stability index": 1.72},
      {"variant": "YIGTHGYPHFSHRPSTLQAASTPQ", "protein stability index": 1.81},
      {"variant": "YIGTHEYPHFSHRPSTLQAASTPD", "protein stability index": 2.06},
      {"variant": "YIGTHEYFHFSHRPSTLQAASTPQ", "protein stability index": 2.44},
      {"variant": "YIMTHEYPHFSHRPSTLQAASTPQ", "protein stability index": 1.86},
      {"variant": "YIGTHEYPHFSHRPSTLGAASTPQ", "protein stability index": 2.06},
      {"variant": "YIGTHEYPHFSHRPSTLQAQSTPQ", "protein stability index": 1.93},
      {"variant": "YIGTHEYPHFSHEPSTLQAASTPQ", "protein stability index": 2.19},
      {"variant": "YIGTTEYPHFSHRPSTLQAASTPQ", "protein stability index": 2.3},
      {"variant": "YIGTHEYPHFSHRPSTLQVASTPQ", "protein stability index": 1.81},
      {"variant": "YIGTHEYKHFSHRPSTLQAASTPQ", "protein stability index": 2.08},
      {"variant": "YIHTHEYPHFSHRPSTLQAASTPQ", "protein stability index": 1.89},
      {"variant": "YIGSHEYPHFSHRPSTLQAASTPQ", "protein stability index": 1.89},
      {"variant": "YIGTCEYPHFSHRPSTLQAASTPQ", "protein stability index": 1.75},
      {"variant": "YIGTHEYPKFSHRPSTLQAASTPQ", "protein stability index": 1.94},
      {"variant": "YIGTHEYIHFSHRPSTLQAASTPQ", "protein stability index": 2.02},
      {"variant": "YIGTHEYPHFSHRPSTLQAAGTPQ", "protein stability index": 2.23},
      {"variant": "YIGTHEYPHFSHRPSTLQAASTQQ", "protein stability index": 2.23},
      {"variant": "YIGTHEYPHFIHRPSTLQAASTPQ", "protein stability index": 2.71},
      {"variant": "YIGTHEYPHFSHRPSTQQAASTPQ", "protein stability index": 2.29},
      {"variant": "YIGTHEYPHFSHRVSTLQAASTPQ", "protein stability index": 2.48},
      {"variant": "YIGTHEYPHFRHRPSTLQAASTPQ", "protein stability index": 2.09},
      {"variant": "YIGTHEYPHFSHRRSTLQAASTPQ", "protein stability index": 1.9},
      {"variant": "YIGTHEYPHFSHRPSNLQAASTPQ", "protein stability index": 1.62},
      {"variant": "YIGPHEYPHFSHRPSTLQAASTPQ", "protein stability index": 2.34},
      {"variant": "YHGTHEYPHFSHRPSTLQAASTPQ", "protein stability index": 1.44},
      {"variant": "YIGTHEYPHFSHRPSTNQAASTPQ", "protein stability index": 2.42},
      {"variant": "YIGTHEYPHFSHRPSTLQAAHTPQ", "protein stability index": 2},
      {"variant": "YIGTHEYPIFSHRPSTLQAASTPQ", "protein stability index": 2.18},
      {"variant": "YIGTHEYPHFSFRPSTLQAASTPQ", "protein stability index": 2.21},
      {"variant": "YIGTHEYPHFSHRPSTLQLASTPQ", "protein stability index": 1.85},
      {"variant": "YTGTHEYPHFSHRPSTLQAASTPQ", "protein stability index": 2.17},
      {"variant": "YMGTHEYPHFSHRPSTLQAASTPQ", "protein stability index": 2.92},
      {"variant": "YIGTHEYPHFSHRPSTLQYASTPQ", "protein stability index": 2.42},
      {"variant": "YIGTHEYPHYSHRPSTLQAASTPQ", "protein stability index": 1.79},
      {"variant": "YIGTHEYPHFSHRPSTLQAASTGQ", "protein stability index": 1.53},
      {"variant": "YIGTHEYPHFSHRPSTTQAASTPQ", "protein stability index": 1.98},
      {"variant": "YIGTHEYPHFSHCPSTLQAASTPQ", "protein stability index": 1.26},
      {"variant": "YIGTHEYPHFSHRTSTLQAASTPQ", "protein stability index": 1.98},
      {"variant": "YIGTHEYPHFSHHPSTLQAASTPQ", "protein stability index": 2.29},
      {"variant": "YIGTHEYPDFSHRPSTLQAASTPQ", "protein stability index": 2.75},
      {"variant": "YIGTHEYPHFSHRPSTYQAASTPQ", "protein stability index": 2.14},
      {"variant": "YIGTHEYPHFQHRPSTLQAASTPQ", "protein stability index": 2.71},
      {"variant": "GIGTHEYPHFSHRPSTLQAASTPQ", "protein stability index": 4.34},
      {"variant": "YIGTHEYPHFSHRPSVLQAASTPQ", "protein stability index": 1.73},
      {"variant": "YIGTHTYPHFSHRPSTLQAASTPQ", "protein stability index": 2.14},
      {"variant": "YIGTHEYPHFSHRPSTLQMASTPQ", "protein stability index": 2.15},
      {"variant": "YIGTHEYPHFSHRYSTLQAASTPQ", "protein stability index": 2.09},
      {"variant": "YIGTHRYPHFSHRPSTLQAASTPQ", "protein stability index": 1.61},
      {"variant": "YIGTAEYPHFSHRPSTLQAASTPQ", "protein stability index": 1.72},
      {"variant": "YIGTHEYPHFSHRPSTLQAISTPQ", "protein stability index": 2.19},
      {"variant": "YPGTHEYPHFSHRPSTLQAASTPQ", "protein stability index": 2.47},
      {"variant": "YIGTHEYPHFSHRPSTLAAASTPQ", "protein stability index": 2.85},
      {"variant": "YIGTHEYPHFSHRQSTLQAASTPQ", "protein stability index": 2.22},
      {"variant": "YIGTHEYPHFSHRPSCLQAASTPQ", "protein stability index": 1.68},
      {"variant": "YIGRHEYPHFSHRPSTLQAASTPQ", "protein stability index": 1.7},
      {"variant": "YIGTHEYEHFSHRPSTLQAASTPQ", "protein stability index": 2.79},
      {"variant": "YIGTHEYPHFSHRPSTLQFASTPQ", "protein stability index": 1.99},
      {"variant": "YIGTHNYPHFSHRPSTLQAASTPQ", "protein stability index": 2.18},
      {"variant": "YIGTHEYPHFSHYPSTLQAASTPQ", "protein stability index": 2.09},
      {"variant": "YIGTQEYPHFSHRPSTLQAASTPQ", "protein stability index": 2.38},
      {"variant": "YIGTHEYPHFSHRPSTLVAASTPQ", "protein stability index": 1.99},
      {"variant": "YIGTHEYPHFSHRPDTLQAASTPQ", "protein stability index": 2.1},
      {"variant": "YIGTHEYPHFSHRPSTLQAASTNQ", "protein stability index": 2.54},
      {"variant": "YIGTHEYWHFSHRPSTLQAASTPQ", "protein stability index": 1.74},
      {"variant": "YIGTHEYPHRSHRPSTLQAASTPQ", "protein stability index": 2.19},
      {"variant": "YIGTHETPHFSHRPSTLQAASTPQ", "protein stability index": 2.3},
      {"variant": "YIGTHEYPHFSHRPSTLQAASTYQ", "protein stability index": 1.75},
      {"variant": "YIGTHEYPCFSHRPSTLQAASTPQ", "protein stability index": 1.48}
    ]}
  ]
}
